± gives the uncertainty stated by the source.
B1: Zinc finger homeobox protein 3, residues 2643 to 2698; numbered along this chain, Q15911 (parent)
chain: RLRTTITPEQLEILYQKYLLDSNPTRKMLDHIAHEVGLKKRVVQVWFQNTRARERK

Variants of: B1
Assay: abundance fitness (aPCA) (normalised: wild type 0, dead -1); higher = more abundant; growth selection in yeast, the domain comes from the species named
Settings: Homo sapiens

Point of comparison: G37W, abundance fitness -0.92 ± 0.11. Against it:
- K27R — higher, -0.444 ± 0.078
- K27M — higher, -0.177 ± 0.11
- L19I — higher, -0.583 ± 0.17
- L19N — higher, -0.422 ± 0.16
- L19W — higher, -0.365 ± 0.11
- K56S — higher, 0.262 ± 0.14
- K56T — higher, 0.01 ± 0.23
- K56Y — higher, -0.54 ± 0.19
- K56R — higher, -0.35 ± 0.17
- I6C — higher, -0.022 ± 0.1
- I13N — higher, -0.287 ± 0.16
- I13E — higher, -0.339 ± 0.12
- I13G — higher, -0.24 ± 0.077
- I13M — higher, -0.253 ± 0.13
- I13Y — higher, 0.012 ± 0.14
- D30C — higher, -0.486 ± 0.14
- D30A — higher, -0.046 ± 0.084
- D30Y — higher, -0.269 ± 0.14
- D30L — higher, -0.435 ± 0.099
- Q44A — higher, 0 ± 0.082
- T7G — higher, -0.072 ± 0.077
- P8V — higher, 0.544 ± 0.094
- P8W — higher, 0.193 ± 0.12
- P8R — higher, 0.196 ± 0.089
- P8A — higher, 0.388 ± 0.095
- P8S — higher, -0.09 ± 0.1
- A33E — within error, -0.759 ± 0.18
- N49D — higher, 0.172 ± 0.15
- N49S — higher, -0.029 ± 0.089
- N49W — higher, -0.68 ± 0.12
- N49Q — higher, -0.168 ± 0.14
- D21P — higher, -0.604 ± 0.15
- D21G — higher, -0.321 ± 0.087
- D21R — within error, -0.803 ± 0.1
- V43R — within error, -1.03 ± 0.11
- V43G — within error, -0.937 ± 0.11
- K17G — higher, -0.528 ± 0.083
- K17P — within error, -1.05 ± 0.21
- R3P — higher, -0.081 ± 0.15
- R3S — higher, 0.43 ± 0.094
- R3L — higher, 0.186 ± 0.095
- E35Y — higher, -0.556 ± 0.14
- E35Q — higher, -0.016 ± 0.1
- E35L — higher, -0.205 ± 0.079
- E35T — higher, 0.063 ± 0.092
- E35G — higher, -0.487 ± 0.092
- E35A — higher, -0.127 ± 0.091
- E35I — higher, -0.029 ± 0.14
- E35V — higher, -0.255 ± 0.092
- V42S — higher, -0.327 ± 0.092
- F47W — higher, -0.106 ± 0.095
- F47E — within error, -0.736 ± 0.15
- F47Y — higher, -0.388 ± 0.22
- G37H — higher, -0.404 ± 0.16
- G37M — higher, -0.53 ± 0.12
- G37F — higher, -0.55 ± 0.15
- G37I — within error, -0.891 ± 0.17
- G37N — higher, -0.306 ± 0.13
- Q48I — within error, -0.687 ± 0.32
- Q48V — higher, -0.147 ± 0.1
- Q48C — higher, -0.189 ± 0.14
- E9N — higher, -0.218 ± 0.1
- E9P — higher, -0.293 ± 0.082
- R1K — higher, 0.027 ± 0.2
- R1S — higher, 0.131 ± 0.15
- Y15A — higher, -0.202 ± 0.096
- L29C — higher, -0.056 ± 0.11
- L29A — higher, -0.552 ± 0.099
- L29S — higher, -0.488 ± 0.091
- L29E — higher, -0.159 ± 0.14
- Q16I — higher, -0.073 ± 0.26
- Q16T — higher, -0.021 ± 0.13
- Q16M — higher, 0.225 ± 0.11
- I32K — within error, -0.807 ± 0.14
- I32S — within error, -0.735 ± 0.1
- I32F — higher, -0.108 ± 0.14
- I32V — higher, -0.078 ± 0.084
- L20G — higher, -0.049 ± 0.086
- L20W — higher, -0.227 ± 0.088
- L20C — higher, -0.022 ± 0.12
- L20Q — higher, 0.109 ± 0.1
- L2I — higher, 0.217 ± 0.13
- L2P — higher, -0.227 ± 0.16
- L2A — higher, -0.009 ± 0.12
- L2H — higher, -0.006 ± 0.2
- L2M — higher, -0.221 ± 0.17
- L2R — higher, -0.262 ± 0.1
- N23R — higher, -0.118 ± 0.087
- N23Q — higher, 0.066 ± 0.14
- T5C — higher, -0.107 ± 0.14
- T5F — higher, -0.358 ± 0.2
- T5Q — higher, 0.17 ± 0.15
- T5W — higher, -0.192 ± 0.15
- T5D — higher, 0.075 ± 0.14
- H31F — higher, -0.068 ± 0.14
- H31V — higher, 0.134 ± 0.08
- H31R — higher, -0.237 ± 0.088
- H31E — higher, 0.265 ± 0.1
- A52W — higher, -0.335 ± 0.097
- A52K — higher, 0.035 ± 0.14
- A52L — higher, -0.317 ± 0.086
- E54D — higher, 0.014 ± 0.097
- E54F — higher, -0.167 ± 0.088
- P24N — higher, -0.623 ± 0.17
- P24T — within error, -0.957 ± 0.15
- P24A — within error, -0.82 ± 0.096
- R26Y — higher, -0.031 ± 0.2
- R26L — higher, 0.266 ± 0.081
- R41W — higher, 0.055 ± 0.12
- R41G — higher, 0.353 ± 0.079
- R41T — higher, 0.514 ± 0.15
- R51T — higher, -0.305 ± 0.16
- R51A — higher, 0.13 ± 0.076
- R51M — higher, 0.098 ± 0.11
- R55E — higher, 0.255 ± 0.13
- R55H — higher, 0.001 ± 0.25
- R55T — higher, 0.479 ± 0.14
- R55A — higher, 0.239 ± 0.086
- R55Y — higher, 0.113 ± 0.14
- T25S — higher, -0.267 ± 0.089
- T25I — higher, -0.502 ± 0.14
- R53Y — higher, -0.327 ± 0.15
- R53G — higher, 0.126 ± 0.071
- R53S — higher, 0.133 ± 0.086
- V36A — higher, -0.114 ± 0.09
- V36E — within error, -1.11 ± 0.26
- V36W — higher, -0.495 ± 0.14
- V36R — within error, -0.82 ± 0.11
- V36P — within error, -1 ± 0.19
- V36S — higher, -0.134 ± 0.094
- V36K — within error, -0.985 ± 0.35
- L14W — within error, -0.758 ± 0.11
- K39N — higher, -0.153 ± 0.14
- K39G — higher, 0.178 ± 0.072
- W46D — within error, -0.815 ± 0.2
- W46S — within error, -0.867 ± 0.14
- Y18T — within error, -1.03 ± 0.22
- Q10C — higher, -0.52 ± 0.086
- Q10A — higher, -0.212 ± 0.086
- Q10E — higher, -0.516 ± 0.15
- Q10M — higher, -0.411 ± 0.09
- T50G — higher, -0.549 ± 0.073
- T50A — higher, 0.056 ± 0.086
- S22K — higher, -0.178 ± 0.14
- S22P — higher, 0.099 ± 0.13
- S22V — higher, -0.395 ± 0.081
- S22W — higher, -0.491 ± 0.11
- S22M — higher, -0.247 ± 0.15
- S22D — higher, 0.075 ± 0.12
- L11S — higher, 0.022 ± 0.09
- L11D — higher, 0.17 ± 0.11
- L11T — higher, -0.117 ± 0.14
- L11W — higher, -0.11 ± 0.097
- L11K — higher, -0.143 ± 0.12
- V45G — higher, -0.213 ± 0.076
- V45Q — higher, -0.016 ± 0.11
- K40W — higher, 0.212 ± 0.11
- K40N — higher, 0.238 ± 0.17
- K40I — higher, 0.093 ± 0.17
- T4G — higher, -0.002 ± 0.08
- T4Y — higher, -0.254 ± 0.18
- T4M — higher, 0.068 ± 0.14
- T4W — higher, -0.423 ± 0.11
- T4N — higher, -0.042 ± 0.2
- T4K — higher, -0.318 ± 0.16
- H34I — within error, -0.632 ± 0.2

From the Human Domainome abundance scans (Beltran et al. 2025)
